B1: Fab molecule clone 1:5 (Fab, V domains shown)
VH: VQLLEQSGAEVRKPGSSVKVSCKASGGTFSGHVITWVRQAPGQGLEWMGESIPIFGSANYAQNYAQKFRDRVSIIADESTSTSFIELSNLRSDDTAVYYCARDPPRYCSAGRCYPGFFQQWGQGTLVTVSS
VL: AELTQSPGTLSLSPGERATLSCRASQSVSSNYLAWYQQRPGQAPRLLIYGASSRATGIPDRFSGSGSGTDFTLTISRLEPEDFAVYYCQLYGNSRWTFGQGTKVEIK
B2: Fab molecule clone L3 (Fab, V domains shown)
VH: EVQLLESGGGVVQPGRSLRLSCAASGFTFKTYGMHWVRQAPGKGLEWVAGISFDGSNQYYADSVKGRFIVSRDNSRDTVFLQMSSLRLEDTAVYYCATEGSPFGSIKGRYYLENWGQGTLVTVSS
VL: AELTQSPATLSVSPGERASLSCRASQSVGNNLAWYQQKPGQAPRLLIYGGNTRATGTPDRFSGSGSGTEFTLTISSLQSEDFAVYFCQHYSTWPLTFGGGTKVEFK

Key:
[1] = molecular target: T1, tetanus toxoid (UniProt P04958 2-1315); experiment: ELISA, coated tetanus toxoid 1 ug/ml
T1 construct: also called TT

[2] = molecular target: T1, tetanus toxoid; experiment: ELISA, […] (100 ug/ml) […]

T1 sequence (P04958 2-457 limits assumed, chain 1 of 2): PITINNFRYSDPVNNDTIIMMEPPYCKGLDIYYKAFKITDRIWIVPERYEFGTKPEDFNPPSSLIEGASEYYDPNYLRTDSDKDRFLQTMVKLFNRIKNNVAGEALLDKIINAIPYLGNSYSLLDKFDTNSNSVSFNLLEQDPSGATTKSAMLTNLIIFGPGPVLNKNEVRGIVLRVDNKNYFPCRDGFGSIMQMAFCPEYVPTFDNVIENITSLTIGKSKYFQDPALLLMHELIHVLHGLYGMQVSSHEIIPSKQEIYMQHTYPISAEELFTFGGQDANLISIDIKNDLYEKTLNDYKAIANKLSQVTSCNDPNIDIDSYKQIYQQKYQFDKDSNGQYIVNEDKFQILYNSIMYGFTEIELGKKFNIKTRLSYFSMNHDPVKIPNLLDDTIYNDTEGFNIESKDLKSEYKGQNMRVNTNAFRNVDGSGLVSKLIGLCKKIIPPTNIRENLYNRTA
T1 sequence (P04958 458-1315 limits assumed, chain 2 of 2): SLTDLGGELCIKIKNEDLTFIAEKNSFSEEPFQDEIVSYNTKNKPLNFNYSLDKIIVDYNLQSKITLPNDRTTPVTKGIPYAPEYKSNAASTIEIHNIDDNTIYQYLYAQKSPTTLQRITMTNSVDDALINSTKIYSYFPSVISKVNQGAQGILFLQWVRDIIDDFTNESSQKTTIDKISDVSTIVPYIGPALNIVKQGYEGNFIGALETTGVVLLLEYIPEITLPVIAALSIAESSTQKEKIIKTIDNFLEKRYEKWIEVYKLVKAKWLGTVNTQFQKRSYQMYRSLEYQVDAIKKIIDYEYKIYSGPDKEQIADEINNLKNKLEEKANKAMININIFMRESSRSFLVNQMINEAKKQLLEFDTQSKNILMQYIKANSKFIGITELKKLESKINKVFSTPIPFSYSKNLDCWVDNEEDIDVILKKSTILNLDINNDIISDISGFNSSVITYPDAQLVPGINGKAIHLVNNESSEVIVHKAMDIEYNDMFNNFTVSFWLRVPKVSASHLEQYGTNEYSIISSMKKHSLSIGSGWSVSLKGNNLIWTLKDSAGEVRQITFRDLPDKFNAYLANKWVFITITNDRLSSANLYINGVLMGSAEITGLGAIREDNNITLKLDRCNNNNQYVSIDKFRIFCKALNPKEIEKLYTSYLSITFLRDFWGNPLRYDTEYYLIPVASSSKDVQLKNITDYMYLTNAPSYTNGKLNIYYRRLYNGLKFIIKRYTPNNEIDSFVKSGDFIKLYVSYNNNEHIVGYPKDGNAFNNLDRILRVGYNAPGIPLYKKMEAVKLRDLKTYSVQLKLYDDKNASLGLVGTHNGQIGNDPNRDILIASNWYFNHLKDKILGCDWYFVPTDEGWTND

| Binder | binding result [1] | OD405 nm (ELISA reactivity) [2] |
| --- | --- | --- |
| B1 | no binding | – |
| B2 | no binding | 0.313 OD405 nm |
